Data reported in patent publication US20130109846A1 (published 2013).

B1: 1h-239-833 (other)
VL: DIQMTQSPSSLSASVGDRVTITCRASQSIYPFLEWYQQKPGKAPKLLIYFTSRLRAGVPSRFSGSGSGTDFTLTISSLQPEDFATYYCLQNVTNPATFSQGTKVEIKR
B2: 1h-239-837 (other)
VL: DIQMTQSPSSLSASVGDRVTITCRASQSIYPFLEWYQQKPGKAPKLLIYFTSRLASGVPSRFSGSGSGTDFTLTISSLQPEDFATYYCLQNVTNPATFSQGTKVEIKR
B3: 1h-239-838 (other)
VL: DIQMTQSPSSLSASVGDRVTITCQASQSIYPFLEWYQQKPGKAPKLLIYFTSRLARGVPSRFSGSGSGTDFTLTISSLQPEDFATYYCLQNVTNPATFSQGTRVEIKR
B4: 1h-239-840 (other)
VL: DIQMTQSPSSLSASVGDRVTITCRASQSIYPFLEWYQQKPGKAPKLLIYFASRLASGVPSRFSGSGSGTDFTLTISSLQPEDFATYYCLQNVTNPATFSQGTKVEIKR
B5: 1h-239-847 (other)
VL: DIQMTQSPSSLSASVGDRVTITCRASQSIYPFLEWYQQKPGKAPKLLIYFTSRLAYGVPSRFSGSGSGTDFTLTISSLQPEDFATYYCLQNVTNPATFSQGTKVEIRR
B6: 1h-239-849 (other)
VL: DIQMTQSPSSLSASVGDRVTITCRASQSIYPFLEWYQQKPGKAPKLLIYFTSKLTRGVPSRFSGSGSGADFTLTISNLQPEDFATYYCLQNVTNPATFSQGTKVEIKR
B7: 1h-239-851 (other)
VL: DIQMTQSPSSLSASVGDRVTITCRASRNIYPFLEWYQQKPGKAPKLLIYFTSRLQSGVPSRFSGSGSGTDFTLTISSLQPEDFATYYCLQNVTNPATFSQGTKVEIKR
B8: 1h-239-856 (other)
VL: DIQMTQSPSSLSASVGDRVTITCRASQSIYPFLEWYQQKPGKAPKLLIYFTSRLRHGVPSRFSGSGSGTDFTLTISSLQPEDFATYYCLQNVTNPATFSQGTKVEIKR
B9: 1h-239-857 (other)
VL: DIQMTQSPSSLSASVGDRVTITCRASQSIYPFLEWYQQKPGKAPKLLIYFTSRLAAGVPSRFSGSGSGTDFTLTISSLQPEDFATYYCLQNVTNPAAFSQGTKVEIKR
B10: 1h-239-859 (other)
VL: DIQMTQSPSSLSASVGDRVTITCRASQSIYPFLEWYQQKPGKAPKLLIYFSSMLASGVPSRFSGSGSGTDFTLTISSLQPEDFATYYCLQNVTNPATFSQGTKVEIKR
B11: 1h-239-869 (other)
VL: DIQMTQSPSSLSASVGDRVTITCRASQSIYPFLEWYQQKPGKAPKLLIYFTSRLQSGVPSRFSGSGSGTDFTLTISSLQPEDFATYYCLQNVQMPATFSQGTKVEIKR
B12: 1h-239-870 (other)
VL: DIQMTQSPSSLSASVGDRVTITCRASQSIYPFLEWYQQKPGKAPKLLIYFTSRLQSGVPSRFSGSGSGTDFTLTISSLQPEDFATYYCLQNVMMPATFSQGTKVEIKR
B13: 1h-239-871 (other)
VL: DIQMTQSPSSLSASVGDRVTITCRASQSIYPFLEWYQQKPGKAPKLLIYFTSRLQSGVPSRFSGSGSGTDFTLTISSLQPEDFATYYCLQNVANPATFSQGTKVEIKR
B14: 1h-239-9 (other)
VL: DIQMTQSPSSLSASVGDRVTITCRASQSIYPFLEWYQQKPGKAPKLLIYFTSRLQSGVPSRFSGSGSGTDFTLTISSLQPEDFATYYCLQNVTNPATFGQGTKVEIKR
B15: 1h-18-1 (other)
VL: DIQMTQSPSSLSASVGDRVTITCRASQYIGTSLNWYQQKPGKAPKLLTYQASFLQSGVPSRFSGSGSGTDFTLTISSLQPEDFATYYCQQLALRPMTFGQGTKVEIKR
B16: 1h-18-3 (other)
VL: DIQMTQSPSSLSASVGDRVTITCRASQYIGTSLNWYQQKPGKAPKLLTYRASLLQSGVPSRFSGSGSGTDFTLTISSLQPEDFATYYCQQLALRPMTFGQGTKVEIKR
B17: 1h-37 (other)
VH: EVQLLESGGGLVQPGGSLRLSCAASGFTFGTYKMVWVRQAPGKGLEWVSSIGPGGLDTYYADSVKGRFTISRDNSKNTLYLQMNSLRAEDTAVYYCAKSWMTLPITGFDYRGQGTLVTVSS
B18: 1h-93 (other)
VH: EVQLLESGGGLVQPGGSLRLSCAASGFTFPLYEMAWVRQAPGKGLEWVSSIMSNGIRTYYADSVKGRFTISRDNSKNTLYLQMNSLRAEDTAVYYCAKRKSSSSRTVFDYWGQGTLVTVSS
B19: 1h-99 (other)
VH: EVQLLESGGGLVQPGGSLRLSCAASGFTFDSANMTWVRQAPGKGLEWVSWIDDTGTQTYYADSVKGRFTISRDNSKNTLYLQMNSLRAEDTAVYYCAKSPFGPLYGFDYWGQGTLVTVSS
B20: 1h-18-5 (other)
VL: DIQMTQSPSSLSASVGDRVTITCRASQYIGTSLNWYQQKPGKAPKLLTYQASLLQSGVPSRFSGSGSGTDFTLTISSLQPEDFATYYCQQLAMRPMTFGQGTKVEIKW
B21: 1h-29 (other)
VH: EVQLLESGGGLVQPGGSLRLSCAASGFTFEDYDMNWVRQAPGKGLEWVSHIDRGGTLTYYADSVKGRFTISRDNSKNTLYLQMNSLRAEDTAVYYCAKSTLMGFDYWGQGTLVTVSS
B22: 1h-30 (other)
VH: EVQLLESGGGLVQPGGSLRLSCAASGFTFAHYHMGWVRQAPGKGLEWVSWIPADGLRTYYADSVKGRFTISRDNSKNTLYLQMNSLRAEDTAVYYCAKYEGAFDYWGQGTLVTVSS
B23: 1h-93-1 (other)
VH: EVQLLESGGGLVQPGGSLRLSCAASGFTFPLYEMAWVRQAPGKGLEWVSSIMSNGTRTYYADSVKGRFTISRDNSKNTLYLQMNSLRAEDTAVYYCAKRESSSSRTVFDYWGQGTLVTVSS
B24: 1h-93-2 (other)
VH: EVQLLESGGGLVQPGGSLRLSCAASGFTFPLYEMAWVRQAPGKGLEWVSSIMSNGIRTYYADSVKGRFTISRDNSKNTLYLQMNSLRAEDTAVYYCAKRESSSSRTVFDYWGQGTLVTVSS
B25: 1h-18-6 (other)
VL: DIQMTQSPSSLSASVGDRVTITCRASQYIGTSLNWYQQKPGKAPKLLIYQASLLQSGVPSRFSGSGYGTDFTLTISSLQPEDFATYYCQQLALRPMTFGQGTKVEIKR
B26: 1h-93-201 (other)
VH: EVQLLESGGGLVQPGGSLRLSCAASGFTFSVSEMAWVRQAPGKGLEWVSSIMSNGIRTYYADSVKGRFTISRDNSKNTLYLQMNSLRAEDTAVYYCARRESSSSRTVFDYWGQGTLVTVSS
B27: 1h-93-204 (other)
VH: EVQLLESGGGLVQPGGSLRLSCAASGFTFYTAEMAWVRQAPGKGLEWVSSIMSNGIRTYYADSVKGRFTISRDNSKNTLYLQMNSLRAEDTAVYYCARRESSSSRTVFDYWGQGTLVTVSS
B28: 1h-99-1 (other)
VH: EVQLLESGGGLVQPGGSLRLSCAASGFTFDSANMTWVRQAPGKGLEWVSWIEDTGTQTFYADSVRGRFTISRDNFKNTLYLQMNSLRAEDTAVYYCAKSPFGPLYGFDYRGQGTLVTVSS
B29: 1h-31 (other)
VL: DIQMTQSPSSLSASVGDRVTITCRASQSIGYSLAWYQQKPGKAPKLLIYWVSSLQSGVPSRFSGSGSGTDFTLTISSLQPEDFATYYCQQTQRTPFTFGQGTKVEIKR
B30: 1h-99-201 (other)
VH: EVQLLESGGGLVQPGGSLRLSCAASGFTFHRWNMSWARQAPGKGLEWVSWIEDTGTQTFYADSVKGRFTISRDNSKNTLYLQMNSLRAEDTAVYYCAKSPFGPLYGFDYRGQGTLVTVSS
B31: 1h-99-203 (other)
VH: EVQLLESGGGLVQPGGSLRLSCAASGFTFYKANMSWARQAPGKGLEWVSWIEDTGTQTFYADSVKGRFTISRDNSKNTLYLQMNSLRAEDTAVYYCAKSPFGPLYGFDYRGQGTLVTVSS
B32: 1h-99-2112 (other)
VH: EVQLLESGGGLVQPGGSLRLSCAASGFTFKDKNMSWARQAPGKGLEWVSWIEAPGVQTFYADSVRGRFTISRDNSKNTLYLQMNSLRAEDTAVYYCARSPFGPLYGFDYRGQGTLVTVSS
B33: 1h-99-2113 (other)
VH: EVQLLESGGGLVQPGGSLRLSCAASGFTFKDKNMSWARQAPGKGLEWVSWIEASGVQTFYADSVKGRFTISRDNSKNTLYLQMNSLRAEDTAVYYCAKSPFGPLYGFDYRGQGTLVTVSS

Biological target: human CD28 (human, UniProt P10747 19-220)
Assay: cell-based or functional assay

Question: Which “Luciferase assay (EC50)” value does the source give for B1 here?
Answer: 8 nM

Question: And the “MLR assay (EC50)” value?
Answer: 7 nM

Question: For B2, which “Luciferase assay (EC50)” value is on record?
Answer: 9 nM

Question: What about the “MLR assay (EC50)” value of the same binder?
Answer: 14 nM

Question: B3 was tested. Which “Luciferase assay (EC50)” value did it give?
Answer: 4 nM

Question: And the “MLR assay (EC50)” value?
Answer: 3 nM

Question: How did the “Luciferase assay (EC50)” value turn out when B4 was run?
Answer: 9 nM

Question: What about the “MLR assay (EC50)” value of the same binder?
Answer: 10 nM

Question: Which “Luciferase assay (EC50)” value does the source give for B5 here?
Answer: 8 nM

Question: And the “MLR assay (EC50)” value?
Answer: 5 nM

Question: What does the source list for B6?
Answer: Luciferase assay (EC50): 13 nM; MLR assay (EC50): 10 nM

Question: Which results are given for B7?
Answer: Luciferase assay (EC50): 5 nM; MLR assay (EC50): 4 nM

Question: What does the source list for B8?
Answer: Luciferase assay (EC50): 3 nM; MLR assay (EC50): 1 nM

Question: Which “Luciferase assay (EC50)” value does the source give for B9 here?
Answer: 3 nM

Question: What about the “MLR assay (EC50)” value of the same binder?
Answer: 1 nM

Question: Which results are given for B10?
Answer: Luciferase assay (EC50): 5 nM; MLR assay (EC50): 4 nM

Question: B11 was tested. Which “MLR assay (EC50)” value did it give?
Answer: 2 nM

Question: With B12 as the binder, how does the “MLR assay (EC50)” value read?
Answer: 3 nM

Question: B13 was tested. Which “MLR assay (EC50)” value did it give?
Answer: 3 nM

Question: With B14 as the binder, how does the “Luciferase assay (EC50)” value read?
Answer: 27 nM

Question: With B15 as the binder, how does the “Luciferase assay (EC50)” value read?
Answer: 5400 nM

Question: Which “Luciferase assay (EC50)” value does the source give for B16 here?
Answer: 1000 nM

Question: With B17 as the binder, how does the “MLR assay (EC50)” value read?
Answer: 1900 nM

Question: What does the source list for B18?
Answer: Luciferase assay (EC50): 2800 nM; MLR assay (EC50): 3200 nM

Question: With B19 as the binder, how does the “MLR assay (EC50)” value read?
Answer: 2200 nM

Question: With B20 as the binder, how does the “Luciferase assay (EC50)” value read?
Answer: > 7000 nM

Question: With B21 as the binder, how does the “Luciferase assay (EC50)” value read?
Answer: > 7000 nM

Question: B22 was tested. Which “Luciferase assay (EC50)” value did it give?
Answer: 1200 nM

Question: Which “Luciferase assay (EC50)” value does the source give for B23 here?
Answer: 493 nM

Question: What about the “MLR assay (EC50)” value of the same binder?
Answer: 545 nM

Question: Which results are given for B24?
Answer: Luciferase assay (EC50): 383 nM; MLR assay (EC50): 830 nM

Question: For B25, which “Luciferase assay (EC50)” value is on record?
Answer: 1400 nM

Question: B26 was tested. Which “Luciferase assay (EC50)” value did it give?
Answer: 182 nM

Question: And the “MLR assay (EC50)” value?
Answer: 18 nM

Question: Which results are given for B27?
Answer: Luciferase assay (EC50): 176 nM; MLR assay (EC50): 1200 nM

Question: Which results are given for B28?
Answer: Luciferase assay (EC50): 15 nM; MLR assay (EC50): 19 nM

Question: B29 was tested. Which “Luciferase assay (EC50)” value did it give?
Answer: 800 nM

Question: B30 was tested. Which “Luciferase assay (EC50)” value did it give?
Answer: 14 nM

Question: What about the “MLR assay (EC50)” value of the same binder?
Answer: 18 nM

Question: B31 was tested. Which “Luciferase assay (EC50)” value did it give?
Answer: 8 nM

Question: What about the “MLR assay (EC50)” value of the same binder?
Answer: 10 nM

Question: Which results are given for B32?
Answer: Luciferase assay (EC50): 3 nM; MLR assay (EC50): 2 nM

Question: Which results are given for B33?
Answer: Luciferase assay (EC50): 5 nM; MLR assay (EC50): 3 nM
